B1: AIC+SRSLP-(Oic)-I-((N-Me)C)+IP-NH2 (peptide)
peptide: AICSRSLP[Oic]I[NMeC]IP-NH2
modifications: disulfide 3-11; N-terminus assumed
SMILES: CC[C@H](C)[C@H](NC(=O)[C@H](C)N)C(=O)N[C@H]1CSSC[C@@H](C(=O)N[C@H](C(=O)N2CCC[C@H]2C(N)=O)[C@@H](C)CC)N(C)C(=O)[C@H]([C@@H](C)CC)NC(=O)[C@@H]2C[C@@H]3CCCC[C@@H]3N2C(=O)[C@@H]2CCCN2C(=O)[C@H](CC(C)C)NC(=O)[C@H](CO)NC(=O)[C@H](CCCNC(=N)N)NC(=O)[C@H](CO)NC1=O
B2: AIC+SRSLP-(Oic)-I-(Pen)+IPD-OH (peptide)
peptide: AICSRSLP[Oic]I[Pen]IPD-OH
modifications: disulfide 3-11; also: TFA salt
B3: (Hoo)-IC+SRS-((tBu)A)-PPI-(Pen)+IPD-NH2 (peptide)
peptide: [Dihydroorotyl(S)]ICSRS[tBuAla]PPI[Pen]IPD-NH2
modifications: disulfide 3-11
SMILES: CC[C@H](C)[C@H](NC(=O)[C@@H]1CC(=O)NC(=O)N1)C(=O)N[C@H]1CSSC(C)(C)[C@@H](C(=O)N[C@H](C(=O)N2CCC[C@H]2C(=O)N[C@@H](CC(=O)O)C(N)=O)[C@@H](C)CC)NC(=O)[C@H]([C@@H](C)CC)NC(=O)[C@@H]2CCCN2C(=O)[C@@H]2CCCN2C(=O)[C@H](CC(C)(C)C)NC(=O)[C@H](CO)NC(=O)[C@H](CCCNC(=N)N)NC(=O)[C@H](CO)NC1=O
B4: ((1R,3S,4S)-2-azabicyclo[2.2.1]heptane-3-carboxylic acid)-IC+SRS-((tBu)A)-PPI-(Pen)+IP-NH2 (peptide)
peptide: [(1R,3S,4S)‑2‑azabicyclo(2.2.1)heptane‑3‑carboxylic acid]ICSRS[tBuAla]PPI[Pen]IP-NH2
modifications: disulfide 3-11
B5: (Gamma-Abu)-IC+SRS-((tBu)A)-PPI-(Pen)+IPD-NH2 (peptide)
peptide: [GABA]ICSRS[tBuAla]PPI[Pen]IPD-NH2
modifications: disulfide 3-11; N-terminus assumed
SMILES: CC[C@H](C)[C@H](NC(=O)CCCN)C(=O)N[C@H]1CSSC(C)(C)[C@@H](C(=O)N[C@H](C(=O)N2CCC[C@H]2C(=O)N[C@@H](CC(=O)O)C(N)=O)[C@@H](C)CC)NC(=O)[C@H]([C@@H](C)CC)NC(=O)[C@@H]2CCCN2C(=O)[C@@H]2CCCN2C(=O)[C@H](CC(C)(C)C)NC(=O)[C@H](CO)NC(=O)[C@H](CCCNC(=N)N)NC(=O)[C@H](CO)NC1=O
B6: (Orn)-IC+SRS-((tBu)A)-PPI-(Pen)+IPD-OH (peptide)
peptide: [Orn]ICSRS[tBuAla]PPI[Pen]IPD-OH
modifications: disulfide 3-11; N-terminus assumed
SMILES: CC[C@H](C)[C@H](NC(=O)[C@@H](N)CCCN)C(=O)N[C@H]1CSSC(C)(C)[C@@H](C(=O)N[C@H](C(=O)N2CCC[C@H]2C(=O)N[C@@H](CC(=O)O)C(=O)O)[C@@H](C)CC)NC(=O)[C@H]([C@@H](C)CC)NC(=O)[C@@H]2CCCN2C(=O)[C@@H]2CCCN2C(=O)[C@H](CC(C)(C)C)NC(=O)[C@H](CO)NC(=O)[C@H](CCCNC(=N)N)NC(=O)[C@H](CO)NC1=O
B7: AIC+SRSLP-(Oic)-I-(Pen)+IPD-NH2 (salt free form) (peptide)
peptide: AICSRSLP[Oic]I[Pen]IPD-NH2
modifications: disulfide 3-11
B8: AIC+SRS-((tBu)A)-P-(Oic)-IC+I-NH2 (peptide)
peptide: AICSRS[tBuAla]P[Oic]ICI-NH2
modifications: disulfide 3-11; N-terminus assumed
SMILES: CC[C@H](C)[C@H](NC(=O)[C@@H]1CSSC[C@H](NC(=O)[C@@H](NC(=O)[C@H](C)N)[C@@H](C)CC)C(=O)N[C@@H](CO)C(=O)N[C@@H](CCCNC(=N)N)C(=O)N[C@@H](CO)C(=O)N[C@@H](CC(C)(C)C)C(=O)N2CCC[C@H]2C(=O)N2[C@@H](C[C@@H]3CCCC[C@@H]32)C(=O)N[C@@H]([C@@H](C)CC)C(=O)N1)C(N)=O
B9: ((N-Me)G)-IC+SRS-((tBu)A)-PPI-(Pen)+IP-(PEG7(25 atoms))-NH2 (peptide)
peptide: [Sar]ICSRS[tBuAla]PPI[Pen]IP[PEG7]-NH2
modifications: disulfide 3-11; N-terminus assumed
SMILES: CC[C@H](C)[C@H](NC(=O)CNC)C(=O)N[C@H]1CSSC(C)(C)[C@@H](C(=O)N[C@H](C(=O)N2CCC[C@H]2C(=O)NCCOCCOCCOCCOCCOCCOCCOCCC(N)=O)[C@@H](C)CC)NC(=O)[C@H]([C@@H](C)CC)NC(=O)[C@@H]2CCCN2C(=O)[C@@H]2CCCN2C(=O)[C@H](CC(C)(C)C)NC(=O)[C@H](CO)NC(=O)[C@H](CCCNC(=N)N)NC(=O)[C@H](CO)NC1=O
B10: (Cit)-IC+SRS-((tBu)A)-PPI-(Pen)+IPD-NH2 (peptide)
peptide: [Cit]ICSRS[tBuAla]PPI[Pen]IPD-NH2
modifications: disulfide 3-11; N-terminus assumed
SMILES: CC[C@H](C)[C@H](NC(=O)[C@@H](N)CCCNC(N)=O)C(=O)N[C@H]1CSSC(C)(C)[C@@H](C(=O)N[C@H](C(=O)N2CCC[C@H]2C(=O)N[C@@H](CC(=O)O)C(N)=O)[C@@H](C)CC)NC(=O)[C@H]([C@@H](C)CC)NC(=O)[C@@H]2CCCN2C(=O)[C@@H]2CCCN2C(=O)[C@H](CC(C)(C)C)NC(=O)[C@H](CO)NC(=O)[C@H](CCCNC(=N)N)NC(=O)[C@H](CO)NC1=O
B11: AIC+SRSLP-(Oic)-I-(Pen)+IPD-NH2 (HCl salt) (peptide)
peptide: AICSRSLP[Oic]I[Pen]IPD-NH2
modifications: disulfide 3-11; also: HCl salt
B12: ((N-Me)G)-IC+SRSLP-(Oic)-I-(Pen)+IP-(PEG7(25 atoms))-NH2 (peptide)
peptide: [Sar]ICSRSLP[Oic]I[Pen]IP[PEG7]-NH2
modifications: disulfide 3-11; N-terminus assumed
SMILES: CC[C@H](C)[C@H](NC(=O)CNC)C(=O)N[C@H]1CSSC(C)(C)[C@@H](C(=O)N[C@H](C(=O)N2CCC[C@H]2C(=O)NCCOCCOCCOCCOCCOCCOCCOCCC(N)=O)[C@@H](C)CC)NC(=O)[C@H]([C@@H](C)CC)NC(=O)[C@@H]2C[C@@H]3CCCC[C@@H]3N2C(=O)[C@@H]2CCCN2C(=O)[C@H](CC(C)C)NC(=O)[C@H](CO)NC(=O)[C@H](CCCNC(=N)N)NC(=O)[C@H](CO)NC1=O
B13: AIC+SRSLP-(Oic)-I-(Pen)+IPD-OH (HCl salt) (peptide)
peptide: AICSRSLP[Oic]I[Pen]IPD-OH
modifications: disulfide 3-11; also: HCl salt
B14: (ACMP)-IC+SRS-((tBu)A)-PPI-(Pen)+IPD-NH2 (peptide)
peptide: [cPrCO(1-aminomethyl)]ICSRS[tBuAla]PPI[Pen]IPD-NH2
modifications: disulfide 3-11; N-terminus assumed
SMILES: CC[C@H](C)[C@@H]1NC(=O)[C@@H]2CCCN2C(=O)[C@@H]2CCCN2C(=O)[C@H](CC(C)(C)C)NC(=O)[C@H](CO)NC(=O)[C@H](CCCNC(=N)N)NC(=O)[C@H](CO)NC(=O)[C@@H](NC(=O)[C@@H](NC(=O)C2(CN)CC2)[C@@H](C)CC)CSSC(C)(C)[C@@H](C(=O)N[C@H](C(=O)N2CCC[C@H]2C(=O)N[C@@H](CC(=O)O)C(N)=O)[C@@H](C)CC)NC1=O

Data on 14 molecules can be found in patent US20210246166A1 (Bayer, published 2021).

Numbered stars: 1 amine (or outer) side, 2 acyl side, 3 side chain; on linkers, the order of the positions; unused ones are H or OH. Bridge positions count the residues as written; N and C are the ends. Square brackets hold non-standard residues; d marks the D form. Ends that are not written are not given here. * marks the point of attachment. cPrCO(1-aminomethyl) = O=C(C1(CN[*:1])CC1)[*:2]; Dihydroorotyl(S) = O=C1C[C@@H](C(=O)*)NC(=O)N1; Oic = O=C(O)[C@@H]1C[C@@H]2CCCC[C@@H]2N1; PEG7 = NCCOCCOCCOCCOCCOCCOCCOCCC(=O)O; tBuAla = CC(C)(C)C[C@H](N)C(=O)O; Cit = NC(=O)NCCC[C@H](N)C(=O)O; Pen = CC(C)(S)[C@H](N)C(=O)O; NMeC = CN[C@@H](CS)C(=O)O; Orn = NCCC[C@H](N)C(=O)O; GABA = NCCCC(=O)O; Sar = CNCC(=O)O

In the test the target is T1, recombinant human MASP1 active protease (amino acids 297-699, C-terminal His Tag) (human, UniProt P48740 297-699).
T1 sequence: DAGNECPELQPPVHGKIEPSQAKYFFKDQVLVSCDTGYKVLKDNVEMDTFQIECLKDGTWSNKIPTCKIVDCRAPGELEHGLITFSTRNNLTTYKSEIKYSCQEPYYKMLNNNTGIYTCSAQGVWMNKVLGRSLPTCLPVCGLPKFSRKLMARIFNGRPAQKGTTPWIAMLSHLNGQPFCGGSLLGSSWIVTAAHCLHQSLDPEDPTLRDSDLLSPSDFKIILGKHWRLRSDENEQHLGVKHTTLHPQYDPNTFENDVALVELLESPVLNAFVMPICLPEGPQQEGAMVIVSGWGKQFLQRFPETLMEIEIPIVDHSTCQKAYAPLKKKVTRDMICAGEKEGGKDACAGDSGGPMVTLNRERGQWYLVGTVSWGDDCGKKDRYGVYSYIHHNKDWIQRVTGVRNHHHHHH
The experiment in a line: cell-based or functional assay.
Regarding B1, the “human MASP1 IC50” value was 3.2 nM.
As for B2, the “human MASP1 IC50” value came to 1.85 nM.
For B3, the “human MASP1 IC50” value came to 3 nM.
For B4 the value was 1.6 nM; for B5, 3 nM; for B6, 1.35 nM.
For B7 the value was 1.5 nM; for B8, 3.3 nM; for B9, 1.6 nM.
On to B10, for which the “human MASP1 IC50” value was 1.7 nM.
For B11 the value was 1.5 nM; for B12, 3.7 nM; for B13, 2.45 nM.
For B14 the value was 1.6 nM.
